Common to all, as to assay: BLI Octet 384RED (Example 8), Sortilin construct in solution
In general terms: Biolayer interferometry detects binding as a change in optical thickness at a sensor tip.

Assay [1] concerns the target T1, Sortilin hSORTECDBAP (human, UniProt Q99523 78-755, biotinylated on the BAP tag by co-expression of biotin ligase).
T1 construct: Soluble extracellular region (ECD, aa 1-755) with BAP tag
T1 sequence: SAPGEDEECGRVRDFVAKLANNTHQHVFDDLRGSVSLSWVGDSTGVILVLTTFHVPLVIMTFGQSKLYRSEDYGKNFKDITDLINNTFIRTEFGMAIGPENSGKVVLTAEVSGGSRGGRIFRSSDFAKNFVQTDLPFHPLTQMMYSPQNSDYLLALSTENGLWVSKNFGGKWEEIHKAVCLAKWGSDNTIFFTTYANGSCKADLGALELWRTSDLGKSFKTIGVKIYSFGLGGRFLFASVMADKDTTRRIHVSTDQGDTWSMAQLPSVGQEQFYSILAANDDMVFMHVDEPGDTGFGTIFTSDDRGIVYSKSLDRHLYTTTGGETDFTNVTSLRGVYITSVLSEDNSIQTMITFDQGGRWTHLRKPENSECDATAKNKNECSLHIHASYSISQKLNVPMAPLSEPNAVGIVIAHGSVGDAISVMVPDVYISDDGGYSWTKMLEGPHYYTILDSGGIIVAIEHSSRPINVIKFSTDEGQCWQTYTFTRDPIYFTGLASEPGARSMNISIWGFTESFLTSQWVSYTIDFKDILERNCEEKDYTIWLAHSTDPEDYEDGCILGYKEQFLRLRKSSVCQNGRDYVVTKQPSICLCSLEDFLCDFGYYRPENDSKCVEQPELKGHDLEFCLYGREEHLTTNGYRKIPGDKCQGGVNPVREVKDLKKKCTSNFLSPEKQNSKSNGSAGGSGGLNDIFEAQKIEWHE
The protocol:
(§1) Binding kinetics of anti-Sortilin HuMab antibodies to Sortilin were determined using Octet 384RED (Fortebio, Menlo Park, USA). HuMab solutions of 2 μg/ml were made by dilution in sample diluent (ForteBio, art. No. 18-5028). Prot A sensors (ForteBio, art. no. 18-0004) were prewetted with kinetics buffer (1:10 sample diluent in PBS) for at least 600 seconds. Subsequently sensors were immobilized with HuMab solution for 600 seconds. A baseline response was obtained by dipping in kinetics buffer for 120 seconds. Association of SORTECD constructs was performed during a 1000 seconds incubation. This was followed by dissociation in kinetics buffer for 100 seconds. After dissociation, sensors were regenerated (10 mM Glycine pH 1.0) and neutralized (kinetics buffer) 3 times for 5 seconds. […] A molecular weight of 76.8 kDA was used for SORTECDHis. Data was fitted with ForteBio Analysis 6.4 software, using a global full fit.

Assay [2] concerns the target T2, Sortilin SORTECDBAP_hB06-10 (human/tetraodon chimera).
T2 construct: Shuffle construct
T2 chain: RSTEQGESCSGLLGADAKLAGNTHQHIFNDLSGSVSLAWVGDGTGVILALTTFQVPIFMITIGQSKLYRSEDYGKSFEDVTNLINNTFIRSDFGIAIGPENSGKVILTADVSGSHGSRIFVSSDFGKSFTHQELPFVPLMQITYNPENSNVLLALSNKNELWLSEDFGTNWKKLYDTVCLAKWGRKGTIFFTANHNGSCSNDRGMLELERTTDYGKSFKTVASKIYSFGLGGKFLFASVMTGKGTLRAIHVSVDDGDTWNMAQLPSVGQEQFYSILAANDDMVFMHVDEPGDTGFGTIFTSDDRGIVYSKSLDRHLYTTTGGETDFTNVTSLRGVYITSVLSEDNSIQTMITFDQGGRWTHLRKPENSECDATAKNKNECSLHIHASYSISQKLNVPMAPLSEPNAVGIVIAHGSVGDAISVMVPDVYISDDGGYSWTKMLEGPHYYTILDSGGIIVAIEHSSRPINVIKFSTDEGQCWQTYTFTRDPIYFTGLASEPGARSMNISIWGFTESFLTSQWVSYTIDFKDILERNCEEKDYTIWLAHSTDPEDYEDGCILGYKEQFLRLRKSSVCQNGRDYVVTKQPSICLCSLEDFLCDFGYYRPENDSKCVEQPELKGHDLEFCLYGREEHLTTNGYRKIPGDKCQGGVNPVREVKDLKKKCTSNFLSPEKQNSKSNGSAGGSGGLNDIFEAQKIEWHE
The procedure:
as §1

Assay [3] concerns the target T3, Sortilin SORTECDBAP_hB12390 (human/tetraodon chimera).
T3 construct: Shuffle construct
T3 chain: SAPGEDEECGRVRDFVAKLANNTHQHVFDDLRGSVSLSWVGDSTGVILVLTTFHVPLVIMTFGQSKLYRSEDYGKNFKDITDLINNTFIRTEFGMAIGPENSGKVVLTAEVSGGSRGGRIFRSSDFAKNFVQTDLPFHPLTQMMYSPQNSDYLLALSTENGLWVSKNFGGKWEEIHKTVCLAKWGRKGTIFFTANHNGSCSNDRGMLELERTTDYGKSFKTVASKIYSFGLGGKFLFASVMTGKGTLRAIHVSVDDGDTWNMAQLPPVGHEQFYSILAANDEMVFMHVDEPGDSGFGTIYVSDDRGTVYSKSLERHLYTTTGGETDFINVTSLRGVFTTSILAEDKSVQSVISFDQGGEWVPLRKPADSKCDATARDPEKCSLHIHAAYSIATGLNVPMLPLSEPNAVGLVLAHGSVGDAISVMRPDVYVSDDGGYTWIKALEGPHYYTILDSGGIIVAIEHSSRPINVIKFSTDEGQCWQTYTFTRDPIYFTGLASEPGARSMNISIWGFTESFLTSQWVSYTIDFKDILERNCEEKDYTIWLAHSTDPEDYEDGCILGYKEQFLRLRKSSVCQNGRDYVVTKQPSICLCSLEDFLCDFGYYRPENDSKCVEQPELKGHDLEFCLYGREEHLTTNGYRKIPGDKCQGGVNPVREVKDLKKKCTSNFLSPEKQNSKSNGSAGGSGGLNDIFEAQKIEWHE
The protocol: as §1

B1: Antibody 5E1 (antibody, V domains shown)
VH: EVHLVESGGDLVNPGGSLKLSCEASGFIFSIYGMSWVRQTPDKRLEWVAMISSGGIYTQYPDSVKGRFTISRDNAKNTLYLQMSGLKSEDTGTYHCTRHDDSWFAYWGQGTLVTVSA
VL: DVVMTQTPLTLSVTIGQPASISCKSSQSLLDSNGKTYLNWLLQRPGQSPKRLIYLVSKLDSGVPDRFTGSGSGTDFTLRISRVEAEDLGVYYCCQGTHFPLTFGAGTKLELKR
notes: Mouse anti-human Sortilin monoclonal antibody from hybridoma (BALB/c), purified on protein G; Assigned to the D Region; also called 5E1F6; Ab 5E1
B1: the EC50 – broadly, the concentration needed to bring the measured effect to its halfway point – in assay [1] was 1.14 ng/mL; in assay [2] it was 0.72 ng/mL; in assay [3], 0.59 ng/mL.

B2: Antibody 1F2 (antibody, V domains shown)
VH: EVQLVESGGDLVKPGGSLKLSCAASGFTFSSYGMSWVRQTPDKRLEWVAIISSGGSYTHYPDSVKGRFTISRDNAKNTLYLQMSSLKSEDTAMYYCARLCGPLCSGYWGQGTSVTVSS
VL: QAVVTQESALTTSPGETVTLTCRSSTGAVTTSNYANWVQEKPDHLFTGLIGGTNNRAPGVPARFSGSLIGDKAALTITGAQTEDEAIYFCALWYSNHFWVFGGGTKLTVLG
notes: Mouse anti-human Sortilin monoclonal antibody from hybridoma (BALB/c), purified on protein G; Assigned to the D Region; also called 1F2F4; Ab 1F2
As for B2, the results for the EC50 in assay [1], in assay [2] and in assay [3] were 1.56 ng/mL, 9.6 ng/mL and 1.1 ng/mL, respectively.

For the origin of these results see US20230159643A1 (H LUNDBECK A S, published 2023).
